Measurements from PMC9482650, “Quantitative fragmentomics allow affinity mapping of interactomes” (Nature Communications, 2022).

B1: MYOZ1, Q9NP98 (peptide)
chain: IPLDGETEEL
B2: TMEM151B, Q8IW70 (peptide)
chain: RHGSCVETSL

target: MAGI1_2, Q96QZ7; assay: holdup assay; parameters: key: below the threshold = too weak to quantify, mostly under pKd 3.1 to 4; settings: plain residues with an end cap or a label only (N-terminal biotin on a linker: ado-ado)
Sequence (Q96QZ7 456-580): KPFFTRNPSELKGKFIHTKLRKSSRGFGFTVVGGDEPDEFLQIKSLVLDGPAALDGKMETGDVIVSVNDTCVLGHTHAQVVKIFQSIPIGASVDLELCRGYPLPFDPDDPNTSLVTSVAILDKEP

| Binder | pKd |
| --- | --- |
| B1 | below the threshold |
| B2 | 3.76 |

target: MAGI3_2, Q5TCQ9; assay: holdup assay; parameters: key: below the threshold = too weak to quantify, mostly under pKd 3.1 to 4; settings: plain residues with an end cap or a label only (N-terminal biotin on a linker: ado-ado)
Sequence (Q5TCQ9 398-503): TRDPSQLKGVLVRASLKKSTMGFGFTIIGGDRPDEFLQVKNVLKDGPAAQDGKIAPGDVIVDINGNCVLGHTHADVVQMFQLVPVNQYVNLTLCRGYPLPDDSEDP

| Binder | pKd |
| --- | --- |
| B1 | below the threshold |
| B2 | 4.06 |

target: LDB3, O75112; assay: holdup assay; parameters: key: below the threshold = too weak to quantify, mostly under pKd 3.1 to 4; settings: plain residues with an end cap or a label only (N-terminal biotin on a linker: ado-ado)
Sequence (O75112 1-94): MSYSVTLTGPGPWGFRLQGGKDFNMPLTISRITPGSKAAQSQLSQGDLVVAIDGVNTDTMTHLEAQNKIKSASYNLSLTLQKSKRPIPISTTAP

| Binder | pKd |
| --- | --- |
| B1 | 4.46 |
| B2 | below the threshold |

target: AHNAK1, Q09666; assay: holdup assay; parameters: key: below the threshold = too weak to quantify, mostly under pKd 3.1 to 4; settings: plain residues with an end cap or a label only (N-terminal biotin on a linker: ado-ado)
Sequence (Q09666 4-100): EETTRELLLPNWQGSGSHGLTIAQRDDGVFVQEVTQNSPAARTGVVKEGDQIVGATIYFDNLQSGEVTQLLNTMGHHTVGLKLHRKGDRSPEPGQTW

| Binder | pKd |
| --- | --- |
| B1 | below the threshold |
| B2 | below the threshold |

target: T1, DLG3_1, Q92796; assay: holdup assay; parameters: key: below the threshold = too weak to quantify, mostly under pKd 3.1 to 4; settings: plain residues with an end cap or a label only (N-terminal biotin on a linker: ado-ado)
T1 sequence (Q92796 125-227, limits assumed, looked up): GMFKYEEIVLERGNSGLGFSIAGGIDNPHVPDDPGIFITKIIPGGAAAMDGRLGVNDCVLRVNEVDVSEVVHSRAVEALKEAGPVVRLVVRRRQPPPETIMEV

| Binder | pKd |
| --- | --- |
| B1 | below the threshold |
| B2 | 3.53 |

target: T2, RADIL, Q96JH8; assay: holdup assay; parameters: key: below the threshold = too weak to quantify, mostly under pKd 3.1 to 4; settings: plain residues with an end cap or a label only (N-terminal biotin on a linker: ado-ado)
T2 sequence (Q96JH8 971-1071, limits assumed, looked up): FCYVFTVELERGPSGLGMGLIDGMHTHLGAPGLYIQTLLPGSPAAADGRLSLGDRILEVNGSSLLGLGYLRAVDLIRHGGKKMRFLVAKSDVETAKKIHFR

| Binder | pKd |
| --- | --- |
| B1 | below the threshold |
| B2 | below the threshold |

target: SCRIB_2, Q14160; assay: holdup assay; parameters: key: below the threshold = too weak to quantify, mostly under pKd 3.1 to 4; settings: plain residues with an end cap or a label only (N-terminal biotin on a linker: ado-ado)
Sequence (Q14160 857-960): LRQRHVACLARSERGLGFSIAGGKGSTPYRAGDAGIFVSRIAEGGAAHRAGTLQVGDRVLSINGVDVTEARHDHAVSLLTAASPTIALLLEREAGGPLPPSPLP

| Binder | pKd |
| --- | --- |
| B1 | below the threshold |
| B2 | 4.43 |

target: IL16_1, Q14005; assay: holdup assay; parameters: key: below the threshold = too weak to quantify, mostly under pKd 3.1 to 4; settings: plain residues with an end cap or a label only (N-terminal biotin on a linker: ado-ado)
Sequence (Q14005 210-306): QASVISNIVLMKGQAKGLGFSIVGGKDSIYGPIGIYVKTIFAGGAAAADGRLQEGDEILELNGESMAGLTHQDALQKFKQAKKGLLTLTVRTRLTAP

| Binder | pKd |
| --- | --- |
| B1 | below the threshold |
| B2 | 3.62 |

target: T3, SHANK1, Q9Y566; assay: holdup assay; parameters: key: below the threshold = too weak to quantify, mostly under pKd 3.1 to 4; settings: plain residues with an end cap or a label only (N-terminal biotin on a linker: ado-ado)
T3 sequence (Q9Y566 658-767, limits assumed, looked up): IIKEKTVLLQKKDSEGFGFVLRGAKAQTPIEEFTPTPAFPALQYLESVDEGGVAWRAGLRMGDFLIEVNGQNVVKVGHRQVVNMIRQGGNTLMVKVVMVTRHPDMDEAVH

| Binder | pKd |
| --- | --- |
| B1 | below the threshold |
| B2 | 4.64 |

target: DLG1_1, Q12959; assay: holdup assay; parameters: key: below the threshold = too weak to quantify, mostly under pKd 3.1 to 4; settings: plain residues with an end cap or a label only (N-terminal biotin on a linker: ado-ado)

| Binder | pKd |
| --- | --- |
| B1 | below the threshold |
| B2 | 4.23 |

target: TJP1_2, Q07157; assay: holdup assay; parameters: key: below the threshold = too weak to quantify, mostly under pKd 3.1 to 4; settings: plain residues with an end cap or a label only (N-terminal biotin on a linker: ado-ado)
Sequence (Q07157 181-274): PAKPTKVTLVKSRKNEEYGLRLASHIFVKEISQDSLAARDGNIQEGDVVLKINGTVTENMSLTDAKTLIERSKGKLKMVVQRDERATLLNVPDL

| Binder | pKd |
| --- | --- |
| B1 | below the threshold |
| B2 | below the threshold |

target: T4, LIN7A, O14910; assay: holdup assay; parameters: key: below the threshold = too weak to quantify, mostly under pKd 3.1 to 4; settings: plain residues with an end cap or a label only (N-terminal biotin on a linker: ado-ado)
T4 sequence (O14910 103-200, limits assumed, looked up): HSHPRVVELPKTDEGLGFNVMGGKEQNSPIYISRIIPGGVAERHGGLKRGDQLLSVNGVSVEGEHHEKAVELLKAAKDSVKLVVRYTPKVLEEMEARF

| Binder | pKd |
| --- | --- |
| B1 | below the threshold |
| B2 | 4.04 |

target: T5, DLG3_2, Q92796; assay: holdup assay; parameters: key: below the threshold = too weak to quantify, mostly under pKd 3.1 to 4; settings: plain residues with an end cap or a label only (N-terminal biotin on a linker: ado-ado)
T5 sequence (Q92796 221-321, limits assumed, looked up): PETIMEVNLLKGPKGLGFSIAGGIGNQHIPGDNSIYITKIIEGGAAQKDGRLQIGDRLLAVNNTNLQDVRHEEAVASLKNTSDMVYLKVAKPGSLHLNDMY

| Binder | pKd |
| --- | --- |
| B1 | below the threshold |
| B2 | 4.53 |

target: SCRIB_3, Q14160; assay: holdup assay; parameters: key: below the threshold = too weak to quantify, mostly under pKd 3.1 to 4; settings: plain residues with an end cap or a label only (N-terminal biotin on a linker: ado-ado)
Sequence (Q14160 999-1103): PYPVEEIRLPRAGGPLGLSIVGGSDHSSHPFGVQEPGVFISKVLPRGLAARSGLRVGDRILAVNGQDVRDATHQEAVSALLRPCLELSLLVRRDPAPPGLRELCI

| Binder | pKd |
| --- | --- |
| B1 | below the threshold |
| B2 | 5.36 |

target: T6, GRIP1_5, Q9Y3R0; assay: holdup assay; parameters: key: below the threshold = too weak to quantify, mostly under pKd 3.1 to 4; settings: plain residues with an end cap or a label only (N-terminal biotin on a linker: ado-ado)
T6 sequence (Q9Y3R0 568-668, limits assumed, looked up): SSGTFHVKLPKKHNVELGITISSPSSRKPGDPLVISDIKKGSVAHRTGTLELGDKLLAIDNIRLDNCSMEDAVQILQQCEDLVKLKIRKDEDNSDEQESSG

| Binder | pKd |
| --- | --- |
| B1 | below the threshold |
| B2 | below the threshold |

target: DLG1_3, Q12959; assay: holdup assay; parameters: key: below the threshold = too weak to quantify, mostly under pKd 3.1 to 4; settings: plain residues with an end cap or a label only (N-terminal biotin on a linker: ado-ado)

| Binder | pKd |
| --- | --- |
| B1 | below the threshold |
| B2 | 4.1 |

target: T7, MPP6, Q9NZW5; assay: holdup assay; parameters: key: below the threshold = too weak to quantify, mostly under pKd 3.1 to 4; settings: plain residues with an end cap or a label only (N-terminal biotin on a linker: ado-ado)
T7 sequence (Q9NZW5 125-219, limits assumed, looked up): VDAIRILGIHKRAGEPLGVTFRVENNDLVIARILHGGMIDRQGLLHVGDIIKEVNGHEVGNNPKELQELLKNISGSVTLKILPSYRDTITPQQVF

| Binder | pKd |
| --- | --- |
| B1 | below the threshold |
| B2 | below the threshold |

target: TJP2_1, Q9UDY2; assay: holdup assay; parameters: key: below the threshold = too weak to quantify, mostly under pKd 3.1 to 4; settings: plain residues with an end cap or a label only (N-terminal biotin on a linker: ado-ado)
Sequence (Q9UDY2 24-128): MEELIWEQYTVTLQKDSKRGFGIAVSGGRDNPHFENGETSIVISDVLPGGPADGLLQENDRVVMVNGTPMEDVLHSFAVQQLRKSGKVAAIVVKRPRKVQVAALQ

| Binder | pKd |
| --- | --- |
| B1 | below the threshold |
| B2 | below the threshold |

target: GRASP, Q7Z6J2; assay: holdup assay; parameters: key: below the threshold = too weak to quantify, mostly under pKd 3.1 to 4; settings: plain residues with an end cap or a label only (N-terminal biotin on a linker: ado-ado)
Sequence (Q7Z6J2 96-193): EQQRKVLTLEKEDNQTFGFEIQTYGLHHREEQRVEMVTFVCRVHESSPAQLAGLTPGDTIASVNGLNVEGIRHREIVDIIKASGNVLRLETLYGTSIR

| Binder | pKd |
| --- | --- |
| B1 | 3.74 |
| B2 | 4.21 |

target: FRMPD3, Q5JV73; assay: holdup assay; parameters: key: below the threshold = too weak to quantify, mostly under pKd 3.1 to 4; settings: plain residues with an end cap or a label only (N-terminal biotin on a linker: ado-ado)
Sequence (Q5JV73 12-100): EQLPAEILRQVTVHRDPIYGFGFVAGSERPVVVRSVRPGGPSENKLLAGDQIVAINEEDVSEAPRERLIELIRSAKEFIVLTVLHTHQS

| Binder | pKd |
| --- | --- |
| B1 | below the threshold |
| B2 | 3.5 |

target: T8, SIPA1L2, Q9P2F8; assay: holdup assay; parameters: key: below the threshold = too weak to quantify, mostly under pKd 3.1 to 4; settings: plain residues with an end cap or a label only (N-terminal biotin on a linker: ado-ado)
T8 sequence (Q9P2F8 945-1036, limits assumed, looked up): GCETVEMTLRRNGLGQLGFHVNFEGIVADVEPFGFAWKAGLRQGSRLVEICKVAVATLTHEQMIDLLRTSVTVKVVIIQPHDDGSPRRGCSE

| Binder | pKd |
| --- | --- |
| B1 | below the threshold |
| B2 | below the threshold |

target: DLG4_3, P78352; assay: holdup assay; parameters: key: below the threshold = too weak to quantify, mostly under pKd 3.1 to 4; settings: plain residues with an end cap or a label only (N-terminal biotin on a linker: ado-ado)
Sequence (P78352 306-403): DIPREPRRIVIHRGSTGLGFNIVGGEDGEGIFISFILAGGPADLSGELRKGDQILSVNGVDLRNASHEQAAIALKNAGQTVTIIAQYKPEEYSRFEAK

| Binder | pKd |
| --- | --- |
| B1 | below the threshold |
| B2 | 4.11 |

target: GORASP2, Q9H8Y8; assay: holdup assay; parameters: key: below the threshold = too weak to quantify, mostly under pKd 3.1 to 4; settings: plain residues with an end cap or a label only (N-terminal biotin on a linker: ado-ado)

| Binder | pKd |
| --- | --- |
| B1 | below the threshold |
| B2 | below the threshold |

target: PDLIM1, O00151; assay: holdup assay; parameters: key: below the threshold = too weak to quantify, mostly under pKd 3.1 to 4; settings: plain residues with an end cap or a label only (N-terminal biotin on a linker: ado-ado)
Sequence (O00151 1-87): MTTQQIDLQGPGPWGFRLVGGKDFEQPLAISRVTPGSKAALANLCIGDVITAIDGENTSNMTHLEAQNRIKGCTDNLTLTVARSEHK

| Binder | pKd |
| --- | --- |
| B1 | 4.18 |
| B2 | 3.65 |

target: GOPC, Q9HD26; assay: holdup assay; parameters: key: below the threshold = too weak to quantify, mostly under pKd 3.1 to 4; settings: plain residues with an end cap or a label only (N-terminal biotin on a linker: ado-ado)

| Binder | pKd |
| --- | --- |
| B1 | below the threshold |
| B2 | 4.41 |

target: DLG4_2, P78352; assay: holdup assay; parameters: key: below the threshold = too weak to quantify, mostly under pKd 3.1 to 4; settings: plain residues with an end cap or a label only (N-terminal biotin on a linker: ado-ado)
Sequence (P78352 155-259): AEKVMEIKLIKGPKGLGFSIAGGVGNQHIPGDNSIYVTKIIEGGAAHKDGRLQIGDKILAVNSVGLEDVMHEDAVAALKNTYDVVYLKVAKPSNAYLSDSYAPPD

| Binder | pKd |
| --- | --- |
| B1 | below the threshold |
| B2 | 4.59 |

target: MAGI2_2, Q86UL8; assay: holdup assay; parameters: key: below the threshold = too weak to quantify, mostly under pKd 3.1 to 4; settings: plain residues with an end cap or a label only (N-terminal biotin on a linker: ado-ado)
Sequence (Q86UL8 410-522): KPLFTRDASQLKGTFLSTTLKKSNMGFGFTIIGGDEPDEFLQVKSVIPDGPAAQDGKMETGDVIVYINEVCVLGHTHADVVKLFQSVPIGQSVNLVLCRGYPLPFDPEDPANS

| Binder | pKd |
| --- | --- |
| B1 | below the threshold |
| B2 | 3.66 |

target: T9, ARHGEF11, O15085; assay: holdup assay; parameters: key: below the threshold = too weak to quantify, mostly under pKd 3.1 to 4; settings: plain residues with an end cap or a label only (N-terminal biotin on a linker: ado-ado)
T9 sequence (O15085 42-136, limits assumed, looked up): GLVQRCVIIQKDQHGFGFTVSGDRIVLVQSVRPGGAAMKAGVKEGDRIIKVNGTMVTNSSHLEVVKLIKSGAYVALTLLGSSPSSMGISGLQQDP

| Binder | pKd |
| --- | --- |
| B1 | 3.82 |
| B2 | 4.41 |
